Experimental data from article PMC3163439 (Molecular cell, 2009).

Legend:
BAX, in vitro translated [1] = biological target: BAX, in vitro translated (UniProt Q07813); test: co-IP
BAX, in vitro translated [2] = biological target: BAX, in vitro translated (UniProt Q07813 1-192); test: co-IP
Sequence of BAX, in vitro translated (UniProt Q07813 1-192) (Q07813 whole entry): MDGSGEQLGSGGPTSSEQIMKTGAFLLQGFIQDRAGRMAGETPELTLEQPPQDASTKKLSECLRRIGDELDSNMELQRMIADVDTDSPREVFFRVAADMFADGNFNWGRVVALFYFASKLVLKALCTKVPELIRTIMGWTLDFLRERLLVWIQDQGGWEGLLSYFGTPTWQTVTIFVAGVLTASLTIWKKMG

Sequence of BAX, in vitro translated (UniProt Q07813) (Q07813 whole entry): as above
Sequence of truncated BID (tBID), in vitro translated (domain or fragment) (P70444 whole entry, the tested form may be a part): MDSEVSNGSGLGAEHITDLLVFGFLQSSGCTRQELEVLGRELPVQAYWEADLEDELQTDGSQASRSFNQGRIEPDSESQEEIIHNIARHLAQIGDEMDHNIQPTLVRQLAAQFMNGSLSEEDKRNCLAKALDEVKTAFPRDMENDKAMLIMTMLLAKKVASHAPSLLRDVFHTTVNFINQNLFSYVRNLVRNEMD

stoichiometry N (BAX, in vitro translated [1])	stoichiometry N (BAX, in vitro translated [2])	Molecule
1		truncated BID (tBID), in vitro translated (domain or fragment)
	~1	BIM, in vitro translated (natural protein, UniProt O54918 1-196, looked up) MAKQPSDVSSECDREGGQLQPAERPPQLRPGAPTSLQTEPQGNPDGEGDRCPHGSPQGPLAPPASPGPFATRSPLFIFVRRSSLLSRSSSGYFSFDTDRSPAPMSCDKSTQTPSPPCQAFNHYLSAMASIRQSQEEPEDLRPEIRIAQELRRIGDEFNETYTRRVFANDYREAEDHPQMVILQLLRFIFRLVWRRH
	~1	PUMA, in vitro translated (natural protein, UniProt Q99ML1 1-193, looked up) MARARQEGSSPEPVEGLARDSPRPFPLGRLMPSAVSCSLCEPGLPAAPAAPALLPAAYLCAPTAPPAVTAALGGPRWPGGHRSRPRGPRPDGPQPSLSPAQQHLESPVPSAPEALAGGPTQAAPGVRVEEEEWAREIGAQLRRMADDLNAQYERRRQEEQHRHRPSPWRVMYNLFMGLLPLPRDPGAPEMEPN
